Substrate in this data set: N[C@@H](Cc1ccc(Oc2cc(I)c(O)c(I)c2)c(I)c1)C(=O)O
As to the kind of experiment: cells, lysate or membranes. The following applies: other: net MCT8 transport, Michaelis-Menten analysis.

Experimental: Apparent Km values were calculated by fitting the plot of uptake rate (v) versus ligand concentration (5) to the Michaelis Menten equation: v=Vmax/(1+Km/S), wherein Vmax is the maximum uptake rate, and Km the Michaelis constant. Calculations were performed using the Slide Write Plus program version 5.01 (Advanced Graphics Software).

B1: MCT8 (Rattus norvegicus; G227D/I169T/S199P/T171I) (protein)
chain: MALPSPASEEAEGPCQEANQEYQEPVCSPVPEPEPEPEPEPEPEPEPVPVPPPEPQPEPEPQPLPDPAPLPVLGFEAEPVQEPEPTPTVETRGTARGFQPPEGGFGWIVVFAATWCNGSIFGIHNSVGILYSMLLEEEKEKNRQVEFQAAWVGALAMGMIFFCSPIVSTFIDRLGCRITATTGAAVAFIGLHTSSFTSPLSLRYFTYGILFGCGCSFAFQPSLVILDHYFQRRLGLANGVVSAGSSIFSMSFPFLIKMLGDRIKLAQTFQVLSTFMFVLTLLSLTYRPLLPSSQDTPSKRGAHTLRQRFLVQFRKYFNMRVFRQRTYRIWAFGIAAAALGYFVPYVHLMKYVEDKFKEIKETWVLLVCIGATSGLGRLVSGHISDSIPGLKKIYLQVLSFLLLGLMSMMIPLCRDFGGLIVVCLFLGLCDGFFITIMAPIAFELVGPMQASQAIGYLLGMMALPMIAGPPIAGLLRNCFGNYHVAFYFAGVPPIIGAVILFFVPLMHQRMFKKEQRESSKDKMLSHDPDPNGELLPGSPTPEEPI
Consider B1, for which the Km (usually the substrate concentration at which the rate is half of its maximum) was determined as 2.2 µM.

For the origin of these results see patent US20050159352A1, “Use of monocarboxylate transporter protein for thyroid hormone transport” (priority 2002, published 2005).
